{"source": "patent US12319742", "about": "(SHATTUCK LABS, dated 2025)", "key": {"OX40": {"biological_target": "T1, OX40", "T1 construct": "member of group m24; also called OX40 overexpressed in engineered mammalian cells", "T1 chain": "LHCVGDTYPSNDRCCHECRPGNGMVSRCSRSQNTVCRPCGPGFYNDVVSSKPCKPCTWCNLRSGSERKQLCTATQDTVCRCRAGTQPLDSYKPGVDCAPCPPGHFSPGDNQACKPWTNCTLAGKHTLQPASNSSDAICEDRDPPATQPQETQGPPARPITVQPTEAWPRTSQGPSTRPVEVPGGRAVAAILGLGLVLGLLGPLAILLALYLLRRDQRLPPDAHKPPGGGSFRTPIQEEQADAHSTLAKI", "assay": "flow cytometry on engineered mammalian cells overexpressing OX40, APC anti-human Fc"}, "4-1BB": {"biological_target": "T2, 4-1BB", "T2 construct": "member of group m24; also called 4-1BB overexpressed in engineered mammalian cells", "T2 sequence (chain, as listed by the source limits assumed)": "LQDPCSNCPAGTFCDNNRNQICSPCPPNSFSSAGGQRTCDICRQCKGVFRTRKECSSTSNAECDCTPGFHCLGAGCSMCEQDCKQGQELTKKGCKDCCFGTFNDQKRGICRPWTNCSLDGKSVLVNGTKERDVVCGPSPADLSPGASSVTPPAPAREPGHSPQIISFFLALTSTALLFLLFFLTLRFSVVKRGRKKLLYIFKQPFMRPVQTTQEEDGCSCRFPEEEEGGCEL", "assay": "flow cytometry on engineered mammalian cells overexpressing 4-1BB, APC anti-human Fc"}, "[1]": {"biological_target": "T3, biotinylated recombinant human TNFRSF25-His tagged (Acro #TN5-H52H3) (human, UniProt Q93038 25-199, biotinylated)", "T3 construct": "treated as the same protein; also called recombinant biotin-conjugated human TNFRSF25 protein; DR3", "T3 sequence (looked up)": "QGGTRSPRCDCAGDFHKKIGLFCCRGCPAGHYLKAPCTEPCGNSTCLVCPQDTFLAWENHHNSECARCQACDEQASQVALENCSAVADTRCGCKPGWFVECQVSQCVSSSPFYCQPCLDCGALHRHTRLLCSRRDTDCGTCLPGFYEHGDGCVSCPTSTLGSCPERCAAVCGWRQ", "assay": "MSD competition; TNFRSF25 on plate, antibody titrated, then recombinant TL1A (TL1A-rabbit Fc) as competitor", "description": "Figure 6: FIG. 6. […] Human TNFRSF25 was precoated on MSD assay plates followed by incubating with various concentrations of anti-TNFRSF25 antibodies."}, "[2]": {"biological_target": "T4, TNFRSF25 on lymphocytes in human PBMCs (human, UniProt Q93038 25-417)", "T4 construct": "whole, on cells; also called TNFRSF25 on CD4+ and CD8+ T cells and NK cells", "T4 sequence (looked up)": "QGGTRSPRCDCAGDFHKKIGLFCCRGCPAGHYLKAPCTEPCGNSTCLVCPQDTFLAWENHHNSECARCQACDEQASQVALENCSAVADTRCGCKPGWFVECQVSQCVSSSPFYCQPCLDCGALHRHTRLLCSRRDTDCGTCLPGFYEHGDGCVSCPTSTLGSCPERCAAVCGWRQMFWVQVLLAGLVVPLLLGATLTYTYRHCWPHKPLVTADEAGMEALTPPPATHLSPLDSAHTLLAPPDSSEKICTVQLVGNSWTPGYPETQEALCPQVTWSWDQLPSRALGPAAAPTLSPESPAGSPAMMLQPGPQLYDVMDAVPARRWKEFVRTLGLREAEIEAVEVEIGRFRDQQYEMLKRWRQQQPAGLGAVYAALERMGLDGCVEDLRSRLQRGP", "assay": "flow cytometry MFI on CD4+ T cells of human PBMCs, no stimulation, APC anti-human Fc"}, "CD40": {"biological_target": "T5, CD40", "T5 construct": "member of group m24; also called CD40 overexpressed in engineered mammalian cells", "T5 sequence (chain, as listed by the source limits assumed)": "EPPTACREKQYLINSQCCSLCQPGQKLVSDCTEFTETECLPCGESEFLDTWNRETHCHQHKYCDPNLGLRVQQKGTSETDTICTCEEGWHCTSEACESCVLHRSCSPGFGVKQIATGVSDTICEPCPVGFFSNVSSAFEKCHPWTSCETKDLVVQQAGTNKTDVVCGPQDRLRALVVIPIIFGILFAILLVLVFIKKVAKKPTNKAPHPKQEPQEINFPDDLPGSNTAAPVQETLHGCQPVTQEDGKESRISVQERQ", "assay": "flow cytometry on engineered mammalian cells overexpressing CD40, APC anti-human Fc"}, "[3]": {"biological_target": "T3, biotinylated recombinant human …", "assay": "SPR (Biacore); biotinylated TNFRSF25-His on streptavidin chip SA; 2 min association, 30 min dissociation; 1:1 binding", "description": "(FIG. 5A) BLI assay was performed using the Octet Red 96e instrument. Streptavidin biosensors were loaded with biotinylated recombinant human TNFRSF25-His tagged (Acro #TN5-H52H3) as the ligand. […] (FIG. 5B) SPR was performed on a Biacore 8K instrument."}, "GITR": {"biological_target": "T6, GITR", "T6 construct": "member of group m24; also called GITR overexpressed in engineered mammalian cells", "T6 chain": "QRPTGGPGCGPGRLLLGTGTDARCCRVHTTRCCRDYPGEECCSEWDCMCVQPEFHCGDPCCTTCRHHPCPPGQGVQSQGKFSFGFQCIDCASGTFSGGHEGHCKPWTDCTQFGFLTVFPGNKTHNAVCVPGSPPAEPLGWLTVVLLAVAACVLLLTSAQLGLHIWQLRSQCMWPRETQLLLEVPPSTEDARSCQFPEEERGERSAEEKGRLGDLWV", "assay": "flow cytometry on engineered mammalian cells overexpressing GITR, APC anti-human Fc"}}, "data": [{"binder": "SL-061 (antibody, human IgG1, kappa, Same variable regions as SL-033; IgG1 with L234A/L235A+G237A; also called clone 061; SL-061 (L234A/L235A+G237A)) heavy: QVQLQQSGPGLVKPSQTLSLTCAISGDSVSGYSAAWNWIRQSPSRGLEWLGRTYYRSKWYNDYAVSVKSRITINPDTSKNQFSLQLNSVTPEDTAVYYCARDYYGSESYYNRGYYYYGMDVWGQGTTVTVSSASTKGPSVFPLAPSSKSTSGGTAALGCLVKDYFPEPVTVSWNSGALTSGVHTFPAVLQSSGLYSLSSVVTVPSSSLGTQTYICNVNHKPSNTKVDKKVEPKSCDKTHTCPPCPAPEAAGAPSVFLFPPKPKDTLMISRTPEVTCVVVDVSHEDPEVKFNWYVDGVEVHNAKTKPREEQYNSTYRVVSVLTVLHQDWLNGKEYKCKVSNKALPAPIEKTISKAKGQPREPQVYTLPPSREEMTKNQVSLTCLVKGFYPSDIAVEWESNGQPENNYKTTPPVLDSDGSFFLYSKLTVDKSRWQQGNVFSCSVMHEALHNHYTQKSLSLSPGK light: AIQLTQSPSSLSASVGDRVTITCRASPGISSALAWYQQKPGKAPKLLMYDESSQESGVPSRFSGSGSGTDFTLTISSLQPEDFATYYCQQFNDYPLTFGGGTKVEIKRTVAAPSVFIFPPSDEQLKSGTASVVCLLNNFYPREAKVQWKVDNALQSGNSQESVTEQDSKDSTYSLSSTLTLSKADYEKHKVYACEVTHQGLSSPVTKSFNRGEC", "values": [{"measurement": "binding result", "setting": "OX40", "result": "no binding (tested: about 20 nM)"}, {"measurement": "binding result", "setting": "4-1BB", "result": "no binding (tested: about 20 nM)"}, {"measurement": "IC50", "setting": "[1]", "result": 0.056, "unit": "nM"}, {"measurement": "EC50", "setting": "[2]", "result": 0.035, "unit": "nM"}, {"measurement": "binding result", "setting": "CD40", "result": "no binding (tested: about 20 nM)"}, {"measurement": "koff", "setting": "[3]", "result": "3.89e-06", "unit": "s⁻¹"}, {"measurement": "kon", "setting": "[3]", "result": "2.85e+06", "unit": "M⁻¹ s⁻¹"}, {"measurement": "binding result", "setting": "GITR", "result": "no binding (tested: about 20 nM)"}]}]}
